IntAct's records for PubMed 23222540

Biological target: ogt1_human OGT (UniProt O15294)
Chain of UniProt O15294 (O15294 whole entry): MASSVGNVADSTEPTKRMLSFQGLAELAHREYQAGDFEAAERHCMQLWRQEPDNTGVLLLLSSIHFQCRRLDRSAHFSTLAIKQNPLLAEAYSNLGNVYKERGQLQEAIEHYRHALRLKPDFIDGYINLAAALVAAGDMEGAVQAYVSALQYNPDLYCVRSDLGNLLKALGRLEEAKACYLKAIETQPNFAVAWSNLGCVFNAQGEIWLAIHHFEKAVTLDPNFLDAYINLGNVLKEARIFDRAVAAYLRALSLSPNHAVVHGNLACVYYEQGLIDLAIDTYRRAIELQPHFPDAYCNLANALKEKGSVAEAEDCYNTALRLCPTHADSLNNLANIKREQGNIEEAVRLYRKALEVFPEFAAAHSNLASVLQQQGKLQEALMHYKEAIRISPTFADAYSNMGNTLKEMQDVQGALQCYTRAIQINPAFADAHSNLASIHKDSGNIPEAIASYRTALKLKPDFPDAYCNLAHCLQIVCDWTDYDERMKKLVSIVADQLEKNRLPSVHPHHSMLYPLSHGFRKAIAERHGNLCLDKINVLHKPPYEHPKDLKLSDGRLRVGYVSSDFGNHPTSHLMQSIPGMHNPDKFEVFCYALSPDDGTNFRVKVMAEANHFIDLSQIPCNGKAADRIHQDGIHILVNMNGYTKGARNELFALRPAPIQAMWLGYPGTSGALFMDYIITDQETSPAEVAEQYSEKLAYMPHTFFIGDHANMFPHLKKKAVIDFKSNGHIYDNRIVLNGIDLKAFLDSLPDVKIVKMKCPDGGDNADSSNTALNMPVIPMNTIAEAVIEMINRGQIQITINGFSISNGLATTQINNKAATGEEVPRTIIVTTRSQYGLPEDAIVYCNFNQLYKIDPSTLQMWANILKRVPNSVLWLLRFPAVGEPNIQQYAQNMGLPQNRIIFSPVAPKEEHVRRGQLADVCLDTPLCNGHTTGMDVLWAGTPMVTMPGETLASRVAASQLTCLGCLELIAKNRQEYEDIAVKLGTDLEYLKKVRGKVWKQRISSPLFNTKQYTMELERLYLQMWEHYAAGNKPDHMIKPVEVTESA

effect of a mutation on the interaction: with no effect
Substance: Methylcytosine dioxygenase TET2 (Homo sapiens), Q6N021-1 H1382Y;D1384A
